# Measurements taken from patent publication US20150259664.
# Residue numbers refer to the chain shown, from its start.
# T1: RF1 variant A-17 (N296K/L297R/L298K)
# T1 chain: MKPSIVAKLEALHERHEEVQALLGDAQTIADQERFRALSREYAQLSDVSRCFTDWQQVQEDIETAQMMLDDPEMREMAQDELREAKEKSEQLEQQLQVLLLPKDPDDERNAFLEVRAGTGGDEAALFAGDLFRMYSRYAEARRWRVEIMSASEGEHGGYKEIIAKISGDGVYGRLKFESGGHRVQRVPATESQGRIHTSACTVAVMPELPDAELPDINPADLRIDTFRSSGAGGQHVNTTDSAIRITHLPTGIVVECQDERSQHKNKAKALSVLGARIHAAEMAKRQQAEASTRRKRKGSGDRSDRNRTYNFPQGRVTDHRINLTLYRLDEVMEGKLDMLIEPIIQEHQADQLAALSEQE
# T2: RF1 variant A-18 (N296K/L297R/L298R)
# T2 chain: T1 chain with K298R
# B1: Escherichia coli Outer Membrane Protein T1 (OmpT1) (protein)
# chain: STETLSFTPDNINADISLGTLSGKTKERVYLAEEGGRKVSQLDWKFNNAAIIKGAINWDLMPQISIGAAGWTTLGSRGGNMVDQDWMDSSNPGTWTDESRHPDTQLNYANEFDLNIKGWLLNEPNYRLGLMAGYQESRYSFTARGGSYIYSSEEGFRDDIGSFPNGERAIGYKQRFKMPYIGLTGSYRYEDFELGGTFKYSGWVESSDNDEHYDPGKRITYRSKVKDQNYYSVAVNAGYYVTPNAKVYVEGAWNRVTNKKGNTSLYDHNNNTSDYSKNGAGIENYNFITTAGLKYTF
# Columns and labels:
# [1] = molecular target: Escherichia coli Release Factor 1 (RF1), wild type
# [2] = molecular target: RF1 variant A-13 (N296K/L297R)
# [3] = molecular target: T1, RF1 variant A-17 (N296K/L297R/L298K)
# [4] = molecular target: T2, RF1 variant A-18 (N296K/L297R/L298R)
protein,measurement,setting,value
B1,"cleavage in lysed strain SBJY001, 0, 1, 2 and 3 hours (Western blot)",[1],"cleavage of unmodified, wild-type RF1 by strain SBJY001 was not detected over the same time periods"
same,"cleavage in lysed recombinant strain, 0, 1, 2 and 3 hours (Western blot)",[2],"the modified RF1 protein variants were efficiently cleaved at all time points tested by the cell-free extract, as determined by Western blot analysis (data not shown)"
same,"cleavage in lysed recombinant strain, 0, 1, 2 and 3 hours (Western blot)",[3],"the modified RF1 protein variants were efficiently cleaved at all time points tested by the cell-free extract, as determined by Western blot analysis (data not shown)"
same,"cleavage in lysed recombinant strain, 0, 1, 2 and 3 hours (Western blot)",[4],"the modified RF1 protein variants were efficiently cleaved at all time points tested by the cell-free extract, as determined by Western blot analysis (data not shown)"
